Measurements taken from US20200231652A1.
Read-outs that look alike come from different tables or passages of the source.

Tests used:
TGF-β1 [1] = target: TGF-β1 (UniProt P01137); assay: cell-based or functional assay
TGF-β3 = TGF-β3 (UniProt P10600); assay: cell-based or functional assay
TGF-β1 [2] = target: TGF-β1 (UniProt P01137)
TGF-β1 [3] = target: TGF-β1 (UniProt P01137); remark: listed apart in the source

TGF-β1, sequence (P01137 279-390 limits assumed): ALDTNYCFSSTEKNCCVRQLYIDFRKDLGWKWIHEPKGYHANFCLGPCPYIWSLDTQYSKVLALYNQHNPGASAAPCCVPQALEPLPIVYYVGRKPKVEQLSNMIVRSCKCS
T22d35, sequence (P37173 other isoform, or with tags, fused parts or gaps limits assumed): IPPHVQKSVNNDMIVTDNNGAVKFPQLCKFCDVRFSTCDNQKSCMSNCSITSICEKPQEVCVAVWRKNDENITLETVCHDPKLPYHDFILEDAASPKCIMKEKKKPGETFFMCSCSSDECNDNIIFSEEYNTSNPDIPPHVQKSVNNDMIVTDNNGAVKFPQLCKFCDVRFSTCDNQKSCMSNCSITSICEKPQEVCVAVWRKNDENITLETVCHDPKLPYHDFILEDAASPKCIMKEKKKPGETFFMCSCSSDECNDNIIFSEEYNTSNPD
TGF-β3, sequence (P10600 301-412 limits assumed): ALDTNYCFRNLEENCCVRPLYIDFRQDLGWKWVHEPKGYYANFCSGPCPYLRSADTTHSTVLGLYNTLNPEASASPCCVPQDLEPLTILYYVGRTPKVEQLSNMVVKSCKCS

Av IC50, TGF-β neutralization, Mv1Lu cell luciferase reporter assay (TGF-β1 [1]) [nM] | IC50, A549 cell IL-11 release assay (TGF-β1 [1]) [nM] | IC50, A549 cell IL-11 release assay (second set, FIG. 4C) (TGF-β1 [1]) [nM] | Av IC50, TGF-β neutralization, Mv1Lu cell luciferase reporter assay (TGF-β3) [nM] | Fold Change Fc-T2m, A549 cell IL-11 release assay [table] (TGF-β1 [2]) [fold] | Fold Change T22d35, A549 cell IL-11 release assay [table] (TGF-β1 [2]) [fold] | IC50, A549 cell IL-11 release assay [table] (TGF-β1 [2]) [nM] | IC50, A549 cell IL-11 release assay [table] (TGF-β1 [3]) [nM] | Substance
1.23 | 0.5 | 0.5 | 0.033 | 0.1 | 1 | 0.58 | 0.526 | T22d35 (from UniProt P37173 24-222) (receptor)
0.506 |  |  | 0.323 |  |  |  |  | T2-hIgG1Fc fusion from R&D
